Drawing on the emibetuzumab library of Makowski et al. (2022), this text covers non-specific binding call for 121 variants.

Sequences and labels used below:
B1: VH:VL chains; a variant is named by its letters at X, in order (parent)
chain 1: QVQLVQSGAEVKKPGASVKVSCKASGYTFTDYXMHWVRQAPGQGLEWMGXVNPNXXXTTYNQKFEGRVTMTTDTSTSTAYMELRSLRSDDTAVYYCARXNXLDXWGQGTTVTVSS
chain 2: DIQMTQSPSSLSASVGDRVTITCSVSSSVSSIYLHWYQQKPGKAPKLLIYSTSNLASGVPSRFSGSGSGTDFTLTISSLQPEDFATYYCQVYSGYPLTFGGGTKVEIK

Variants of B1 are the subject of the series. Description: yeast display scFab, FACS + sequencing. In a few lines:
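Heavy-chain CDR mutant scFab yeast surface library, FACS-sorted after labelling with biotinylated ovalbumin (260 μg/mL in PBSB, 3 h, room temperature) or soluble membrane proteins (130 μg/mL, 20 min on ice), plus anti-Myc. Gates collected the top 25% and bottom 10% of binders, and samples from two replicates were deep sequenced. Non-specific binding call: a sequence was positive if found in ≥3 of 4 positive samples (membrane protein and ovalbumin pooled) and no negatives, and negative by the converse rule.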
As for AREEGFSV, the non-specific binding call is “no binding”. In the case of SREGGFAA, the non-specific binding call is “binds”. Take YRARSALD: the non-specific binding call is listed as “binds”. As for YRARSAAD, the non-specific binding call is “binds”. Next, YRARSAAV: “binds”; VREGSSAA: “binds”; SRATAYSD: “binds”. Then YREGGFVA, with “binds”. Then DREEGAVA, with “no binding”; and DREEGAVV, with “no binding”. On to DREEGAVY, for which the non-specific binding call is “no binding”. Next, VREGDYLS: “binds”; FREKGDLA: “no binding”; YRARSAVA: “binds”. Then YRARSAVV, with “binds”; and YRARSAVD, with “binds”.

Consider YRARSAVY, for which the non-specific binding call is “binds”.

Regarding YRARSSGV, the non-specific binding call was “binds”. Next, YRARSSGA: “binds”; YRARSAGF chain 1 G108D: “binds”; DREEGSWV: “no binding”. On to FREEGFSV, for which the non-specific binding call is given as “no binding”. For DREEGFSV, the non-specific binding call is “no binding”. For the variant DREEGDGS, the non-specific binding call is “no binding”. With DREEGDGV, the non-specific binding call was “no binding”. Next, SREAASLA: “no binding”; AREGDAGD: “no binding”; ARARGSWV: “binds”.

Turning to SREEGFSV, the non-specific binding call is “no binding”. With FREGGSGD, the non-specific binding call is “binds”. Then YREGDAAD, with “no binding”; and YRARGSVS, with “binds”; and YRARGSVF, with “binds”.

Turning to YRARGYGV, the non-specific binding call is “binds”.

Consider YRARSAWS, for which the non-specific binding call is listed as “binds”. In the case of YRARSAWA, the non-specific binding call is “binds”. Next, YRARSAWV: “binds”.

Turning to AREGDDVA, the non-specific binding call is “no binding”. Next, DREGGVSD: “binds”; VREEGDGA: “no binding”. Take VRARGVVA: the non-specific binding call is given as “binds”. Then YRARGSWD, with “binds”; and YRARGSWS, with “binds”; and YRARSSAD, with “binds”. Next, YRARSSAA: “binds”; YRARSSWS: “binds”.

Consider YRARSSWD, for which the non-specific binding call is “binds”.

Consider VRATGSVY, for which the non-specific binding call is recorded as “binds”.

Regarding DREEGDWV, the non-specific binding call is “no binding”. Next, DREEGDWA: “no binding”; YREKGAAA: “binds”. Then YRARGYVY, with “binds”; and YRARSSVV, with “binds”; and YRARSSVA, with “binds”.

In the case of VREGAAAV, the non-specific binding call is “no binding”. Consider FREGSAVA, for which the non-specific binding call was “binds”.

On to YREGGFAA, for which the non-specific binding call is listed as “binds”.

As for FREGGAVS, the non-specific binding call is on record as “binds”. Regarding YRARSSSD, the non-specific binding call is “binds”. Then DREGDAVA, with “no binding”; and YREEGDVF, with “no binding”. Then SREAASGV, with “no binding”; and DREEGAGS, with “no binding”; and DREEGAGV, with “no binding”. Next, DREEGAGA: “no binding”. On to YRARGVVV, for which the non-specific binding call is on record as “binds”. Then FREKDSAD, with “no binding”; and SREAADWV, with “no binding”. Then SREAADWA, with “no binding”; and DREEGSSA, with “no binding”. For DREEGSSY, the non-specific binding call is listed as “no binding”. As to YRARSSLY, the non-specific binding call is on record as “binds”.

For YRARSSLA, the non-specific binding call is “binds”. YRARSDVF: the non-specific binding call was “no binding”.

With YRATDFVV, the non-specific binding call is “binds”. Next, YRARGSSS: “binds”; DREGDDAV: “no binding”; SREAADAV: “no binding”.

In the case of FRATSAVD, the non-specific binding call is “binds”. Next, YREGDFVD: “binds”; VRATGYWA: “binds”; SREGGVVV: “binds”. As to DREEGDVV, the non-specific binding call is recorded as “no binding”. With AREKGSAA, the non-specific binding call was “binds”.

For the variant FREGGALD, the non-specific binding call is “binds”. Next, DREEGDAV: “no binding”. Turning to YREKAAWA, the non-specific binding call is recorded as “binds”. Then YREETSGA, with “binds”; and SREAAAVY, with “no binding”; and YREGGSGV, with “binds”. Turning to YREKDSAD, the non-specific binding call was “no binding”. Then YRARSASV, with “binds”. Next, YRARSASA: “binds”; FREGASWD: “binds”. Consider DRARTFVA, for which the non-specific binding call is listed as “binds”. Then SREAADGV, with “no binding”; and FRARGSWV, with “binds”; and YREGGSLD, with “binds”. As for VREAADSF, the non-specific binding call was “no binding”. As for VREGDDAV, the non-specific binding call is listed as “no binding”. Turning to YREGGAGV, the non-specific binding call is recorded as “binds”. As for YRARSAGA, the non-specific binding call is recorded as “binds”.

YRARSAGY: the non-specific binding call is “binds”. Consider YRARSAGV, for which the non-specific binding call was “binds”. Regarding YRARSAGF, the non-specific binding call is given as “binds”. Consider YREGDASD, for which the non-specific binding call is reported as “no binding”. On to YREEGDGV, for which the non-specific binding call is “no binding”. Consider FRARSSGF, for which the non-specific binding call is on record as “binds”. Then FREGSASV, with “binds”; and YREGGSVD, with “no binding”. Then FRARSAAV, with “binds”; and FRARSAAA, with “binds”. Next, DREGDYLY: “no binding”; YRARGVGA: “binds”. For the variant YRARGVGV, the non-specific binding call was “binds”. Next, DREEGSGD: “no binding”; YREGGDGA: “no binding”.

Consider YREKGAGD, for which the non-specific binding call is listed as “binds”. Then YRARSFGS, with “binds”; and YRARSFGD, with “binds”; and DREEGVGV, with “no binding”.
